Laboratory results reported in patent US20080141385, “Skn-1 and Gsk-3 Genes and Proteins” (published 2008).

T1: SKN-1 peptides (UniProt P34707)
T1 sequence: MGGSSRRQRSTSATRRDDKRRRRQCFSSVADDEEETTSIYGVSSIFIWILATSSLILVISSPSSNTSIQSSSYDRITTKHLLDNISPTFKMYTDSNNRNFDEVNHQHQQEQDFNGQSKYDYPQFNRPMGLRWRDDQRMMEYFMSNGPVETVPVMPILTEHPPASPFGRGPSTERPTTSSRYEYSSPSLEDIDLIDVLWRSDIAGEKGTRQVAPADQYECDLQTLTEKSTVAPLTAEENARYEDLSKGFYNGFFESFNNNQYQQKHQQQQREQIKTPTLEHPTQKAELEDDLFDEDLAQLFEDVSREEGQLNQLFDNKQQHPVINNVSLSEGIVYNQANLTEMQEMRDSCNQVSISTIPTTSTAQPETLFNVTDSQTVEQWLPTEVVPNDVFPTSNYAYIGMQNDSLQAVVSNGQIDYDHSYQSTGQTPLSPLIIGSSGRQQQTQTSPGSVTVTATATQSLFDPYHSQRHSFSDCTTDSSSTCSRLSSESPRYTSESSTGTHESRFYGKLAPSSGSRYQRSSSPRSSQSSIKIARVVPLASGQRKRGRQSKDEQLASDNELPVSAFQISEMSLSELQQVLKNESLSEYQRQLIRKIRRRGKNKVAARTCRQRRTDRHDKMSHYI

T2: SKN-1 DNA binding domain (SKN domain, 85 aa) (Caenorhabditis elegans, UniProt P34707 SEQ:1-85)
T2 sequence: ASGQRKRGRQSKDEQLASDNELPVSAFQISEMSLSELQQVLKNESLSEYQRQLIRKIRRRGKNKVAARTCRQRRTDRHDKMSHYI

T3: SKN-1 full-length (Caenorhabditis elegans, UniProt P34707 SEQ:1-533)
T3 sequence: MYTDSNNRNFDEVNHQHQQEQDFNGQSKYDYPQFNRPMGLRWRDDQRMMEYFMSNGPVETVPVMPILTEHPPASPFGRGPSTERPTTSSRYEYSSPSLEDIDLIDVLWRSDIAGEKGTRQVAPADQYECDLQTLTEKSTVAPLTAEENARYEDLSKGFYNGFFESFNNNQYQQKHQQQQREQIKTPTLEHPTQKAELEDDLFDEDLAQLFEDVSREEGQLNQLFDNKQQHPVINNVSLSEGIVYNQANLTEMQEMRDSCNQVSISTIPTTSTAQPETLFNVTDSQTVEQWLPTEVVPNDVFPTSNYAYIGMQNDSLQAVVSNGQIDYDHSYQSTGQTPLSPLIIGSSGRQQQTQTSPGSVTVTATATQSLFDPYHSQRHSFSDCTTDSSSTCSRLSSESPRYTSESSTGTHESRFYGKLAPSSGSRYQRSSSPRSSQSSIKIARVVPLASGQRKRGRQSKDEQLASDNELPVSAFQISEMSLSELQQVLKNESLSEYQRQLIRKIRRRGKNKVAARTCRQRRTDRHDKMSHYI

B1: gcs-1 composite element, site 3 mutant (dsDNA)
DNA 1: ACTTTCTGCAGATGAGATTTAATGTTTCCTTTTGATTTTCT
DNA 2: AGAAAATCAAAAGGAAACATTAAATCTCATCTGCAGAAAGT

Tests used:
[1] = molecular target: T1, SKN-1 peptides
[2] = molecular target: T2, SKN-1 DNA binding domain (SKN domain, …); experiment: EMSA; no binding to mutant probe; as unlabeled competitor much less effective than wild type; settings: label: 32P
Experimental: (§1) FIGS. 4A and 4B: Specific binding of SKN-1 to an essential gcs-1 promoter sequence. 4A: Binding of full-length SKN-1 to site 3 within the gcs-1 composite element, assayed by EMSA. Lanes 2-5 show binding of increasing amounts of in vitro translated SKN-1 protein (0 μl, 0.25 μl, 0.5 μl, 3 μl translation lysate; indicated by a triangle) to the wild type site. […] A background species is labeled. Lanes 6-10 show the same assay performed with the mutant probe. In lanes 11-20, SKN-1-DNA binding is assayed in the presence of the indicated unlabelled competitor oligonucleotides. Lanes 12-15 and 17-20 correspond to addition of a 20-, 50-, 150-, and 400-fold molar excess of competitor over the labeled wild-type DNA. 4B: The in vitro translated SKN-1 DNA binding domain (FIG. 1B) binds specifically to the gcs-1 composite element. Binding was assayed as in 4A.
(§2) Remarkably, SKN-1 binding site 3 is located within a 42 bp gcs-1 promoter element that is similar to a composite motif through which SKN-1 activates med-1 and med-2 in the embryo (FIGS. 1A and 3C) (Maduro et al. Mol. Cell 7: 475-485 (2001)). The conservation between these gcs-1 and med promoter elements is particularly striking because they are located at identical distances from their respective translation starts, but contain different numbers of SKN-1 sites (FIG. 3C). […]

[3] = molecular target: T3, SKN-1 full-length; experiment: as above; settings: label: 32P
Experimental: as §1, §2

Row | Molecule | phosphorylation of SKN-1 by GSK-3 [1] | phosphorylation of SKN-1 peptides by GSK-3 [1] | binding result [2] | binding result [3]
1 | GSK-3 | GSK-3 then phosphorylates SKN-1 sequentially in the amino-terminal direction | Phosphorylation by GSK-3 required priming phosphorylation at a serine or threonine residue located four positions carboxyl-terminal to the GSK-3 site |  | 
2 | B1 |  |  | no binding | no binding
